Test results from patent US20260070986A1 (AFFIMED, published 2026).

Experiments:
[1] = molecular target: T1, recombinant human FcγRIIB (CD32B), biotinylated (human, UniProt P31994 43-217, limits assumed, site-directed biotinylation at AviTag); assay: SPR (Biacore), 37 °C, biotin-captured human CD32B as ligand, steady-state plot; left-hand column, no heading on the sheet
T1 construct: also called human CD32B
T1 sequence (looked up): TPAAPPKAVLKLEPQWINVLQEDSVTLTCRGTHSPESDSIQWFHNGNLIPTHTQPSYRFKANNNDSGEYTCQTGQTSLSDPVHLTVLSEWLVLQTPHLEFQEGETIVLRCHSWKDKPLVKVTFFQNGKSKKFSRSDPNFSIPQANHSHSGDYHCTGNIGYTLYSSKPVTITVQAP
Protocol: (§1) FIG. 21: SPR interaction analysis of antibody binding to CD32. […] Affinity parameters were evaluated for interaction with receptors using a Steady State Binding model.

[2] = molecular target: T2, recombinant human FcγRI (CD64), biotinylated (human, UniProt P12314 16-288, limits assumed, site-directed biotinylation at AviTag); assay: SPR (Biacore), 37 °C, biotin-captured human CD64 as ligand, steady-state plot; left-hand column, no heading on the sheet
T2 construct: also called human CD64
Protocol: (§2) FIG. 20: SPR interaction analysis of antibody binding to CD64 and murine CD16-2. […] Affinity parameters were evaluated for interaction with receptors using a Steady State Binding model.

[3] = molecular target: T3, recombinant human FcγRIIC (CD32C), biotinylated (human, UniProt P31995 43-223, limits assumed, site-directed biotinylation at AviTag); assay: SPR (Biacore), 37 °C, biotin-captured human CD32C as ligand, steady-state plot; left-hand column, no heading on the sheet
T3 construct: also called human CD32C
T3 sequence (looked up): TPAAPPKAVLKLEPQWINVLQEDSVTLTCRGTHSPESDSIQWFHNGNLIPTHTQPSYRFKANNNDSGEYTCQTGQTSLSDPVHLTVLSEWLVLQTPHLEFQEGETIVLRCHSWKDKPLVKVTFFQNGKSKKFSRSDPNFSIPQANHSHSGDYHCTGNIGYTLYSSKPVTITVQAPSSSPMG
Protocol: as §1

[4] = molecular target: T4, recombinant murine FcγRI (CD64), biotinylated (murine, UniProt P26151 25-297, limits assumed, site-directed biotinylation at AviTag); assay: SPR (Biacore), 37 °C, biotin-captured murine CD64 as ligand, steady-state plot; left-hand column, no heading on the sheet
T4 construct: also called murine CD64; mouse CD64
T4 sequence (looked up): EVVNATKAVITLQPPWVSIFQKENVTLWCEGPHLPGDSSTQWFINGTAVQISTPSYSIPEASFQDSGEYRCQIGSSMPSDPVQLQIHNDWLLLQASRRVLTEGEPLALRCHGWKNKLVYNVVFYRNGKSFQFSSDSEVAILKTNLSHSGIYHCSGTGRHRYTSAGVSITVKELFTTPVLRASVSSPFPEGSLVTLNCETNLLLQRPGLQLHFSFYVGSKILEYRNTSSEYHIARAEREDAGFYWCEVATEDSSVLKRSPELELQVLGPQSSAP
Protocol: as §2

[5] = molecular target: T5, recombinant cynomolgus neonatal Fc receptor (FcRn), biotinylated (cynomolgus, UniProt Q8SPV9 24-297, limits assumed, site-directed biotinylation at AviTag); assay: SPR (Biacore), 37 °C, pH 6.0, biotin-captured cynomolgus FcRn as ligand, steady-state affinity fit
T5 construct: also called cynomolgus FcRn
Protocol: (§3) Affinity parameters were evaluated for interaction with human FcRn, cynomolgus FcRn or murine FcRn using a Steady State Binding model (D-F).

[6] = molecular target: T6, recombinant human neonatal Fc receptor (FcRn), biotinylated (human, UniProt P55899 24-297, site-directed biotinylation at AviTag); assay: SPR (Biacore T200), 37 C, pH 6.0, biotin-captured FcRn, steady-state affinity
T6 construct: also called human FcRn
Protocol: (§4) Sensor chips were pre-equilibrated in HBS-P+ running buffer for 12 hours prior to the first measurement and the detectors were normalized using BIAnormalization solution (70% w/w glycerol) according to the manufacturer's instructions.
(§5) Interaction analysis of FcRn binding was performed at pH 6.0 in PBS/0.05% Tween 20; analytes and ligands were diluted in the same buffer. […] Ligand-free surfaces in FC1 and FC3 were used as references for response signals (FC2-1, FC4-3). Interaction analysis of CD64, CD32, and murine CD16-2 binding was performed in HBS-P+ buffer and analytes and ligands were diluted in the same buffer. Biotinylated Fcγ-Receptors were captured to a density of approximately 15 to 30 RU (FC2, FC3, and FC4) before increasing concentrations (500 nM to 4000 nM) of antibody were injected, using the single-cycle kinetic mode (FC1-FC4) at a flow rate of 40 μL/min for 100 seconds followed by dissociation for 90 seconds. A zero-concentration cycle and ligand-free surface in FC1 was used for referencing of response signals (FC2-1, FC3-1, and FC4-1). Sensor chip surfaces were prepared and regenerated before and after each measurement using Biotin Capture reagent (Biotin CAPture Kit, GE Healthcare) and 6 M guanidine-HCl, 0.25 M NaOH, respectively.
(§6) Binding affinities were determined by fitting data using the steady state affinity model of the Biacore T200 Evaluation software (v3.1).

[7] = molecular target: T5, recombinant cynomolgus neonatal Fc …; assay: as above
Protocol: as §4, §5, §6

[8] = molecular target: T7, recombinant murine neonatal Fc receptor (FcRn), biotinylated (murine, UniProt Q61559 22-297, limits assumed, site-directed biotinylation at AviTag); assay: SPR (Biacore), 37 °C, pH 6.0, biotin-captured murine FcRn as ligand, steady-state affinity fit
T7 construct: also called murine FcRn
T7 sequence (looked up): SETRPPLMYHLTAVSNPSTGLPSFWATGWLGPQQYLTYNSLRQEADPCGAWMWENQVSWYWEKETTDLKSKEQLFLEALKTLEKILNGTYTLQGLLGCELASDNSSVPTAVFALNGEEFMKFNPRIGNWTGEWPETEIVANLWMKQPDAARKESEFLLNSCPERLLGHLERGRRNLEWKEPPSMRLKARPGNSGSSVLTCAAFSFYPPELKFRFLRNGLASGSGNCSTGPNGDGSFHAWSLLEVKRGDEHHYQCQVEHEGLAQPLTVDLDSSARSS
Protocol: as §3

T5 sequence (Q8SPV9 24-297 limits assumed, form in doubt): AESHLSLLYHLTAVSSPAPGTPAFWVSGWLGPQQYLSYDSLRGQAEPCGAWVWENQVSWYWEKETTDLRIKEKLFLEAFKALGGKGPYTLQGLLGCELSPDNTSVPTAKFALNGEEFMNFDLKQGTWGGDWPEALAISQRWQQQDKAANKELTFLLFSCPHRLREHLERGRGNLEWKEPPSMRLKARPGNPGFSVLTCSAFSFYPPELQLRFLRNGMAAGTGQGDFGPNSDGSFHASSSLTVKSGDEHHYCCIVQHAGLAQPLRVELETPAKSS
T2 sequence (P12314 16-288 limits assumed): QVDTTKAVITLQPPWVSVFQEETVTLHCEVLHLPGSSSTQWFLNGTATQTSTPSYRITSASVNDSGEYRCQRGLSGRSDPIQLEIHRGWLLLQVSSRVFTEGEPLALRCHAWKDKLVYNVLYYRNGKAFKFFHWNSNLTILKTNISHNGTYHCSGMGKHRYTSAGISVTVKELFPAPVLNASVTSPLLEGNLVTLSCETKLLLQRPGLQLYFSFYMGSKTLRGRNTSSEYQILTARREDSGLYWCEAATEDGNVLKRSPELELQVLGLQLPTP
T6 sequence (P55899 24-297 limits assumed, form in doubt): as the sequence (Q8SPV9 24-297 limits assumed, form in doubt) above, with D39N, Q44E, S99G, G189S, N190S, M217L, T269S counted along it

B1: scFv-IgAb_268 (CD123-1xCD16a1) (bispecific antibody)
heavy: QVQLQQSGAEVKKPGASVKVSCKASGYTFTDYYMKWVKQSHGKSLEWMGDIIPSNGATFYNQKFKGKATLTVDRSTSTAYMELSSLRSEDTAVYYCARSHLLRASWFAYWGQGTLVTVSSASTKGPSVFPLAPSSKSTSGGTAALGCLVKDYFPEPVTVSWNSGALTSGVHTFPAVLQSSGLYSLSSVVTVPSSSLGTQTYICNVNHKPSNTKVDKKVEPKSCDKTHTCPPCPAPEFEGGPSVFLFPPKPKDTLMISRTPEVTCVVVAVSHEDPEVKFNWYVDGVEVHNAKTKPREEQYNSTYRVVSVLTVLHQDWLNGKEYKCKVSNKALPAPIEKTISKAKGQPREPQVYTLPPSREEMTKNQVSLTCLVKGFYPSDIAVEWESNGQPENNYKTTPPVLDSDGSFFLYSKLTVDKSRWQQGNVFSCSVMHEALHNHYTQKSLSLSPGGGGGSGGGGSGGGGSGGGGSGGGGSGGGGSSYELTQPLSVSVALGQTARITCGGNNIGSKSVHWYQQKPGQAPVLVIYQDKKRPSGIPERFSGSNSGNTATLTISRAQAGDEADYYCQVWDDYIVLFGCGTKLTVLGGSGGSGGSGGSGGSGGSGGSQVQLVQSGAEVKKPGASVKVSCKASGYTFTNYYMQWVRQAPGQCLEWMGIINPSGGVTSYAQKFQGRVTMTRDTSTSTVYMELSSLRSEDTAVYYCARGSAYYYDFADYWGQGTLVTVSS
light: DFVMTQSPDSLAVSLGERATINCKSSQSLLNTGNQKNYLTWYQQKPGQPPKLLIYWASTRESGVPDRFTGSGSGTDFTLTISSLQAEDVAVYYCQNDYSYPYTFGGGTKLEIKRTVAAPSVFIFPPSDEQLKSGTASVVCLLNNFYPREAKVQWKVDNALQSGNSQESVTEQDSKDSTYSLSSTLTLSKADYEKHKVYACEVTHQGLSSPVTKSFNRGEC
notes: also called AFM28; CD123xCD16A scFv-IgAb_268
B1: no binding [1]; no binding [2]; no binding [3]. For the same binder, the binding result [4] was “no binding (tested: 2e-6 M (last point visible))”, the Kd [5] was 238 nM and the Kd [6] was 364 nM. It also gave a Kd [7] of 238 nM and a Kd [8] of 72 nM.
